Data taken from patent US20110217279.

How the values were obtained:
[1] = test system: T1, variant peptide GLKRNRYLAFHFKSGSL
T1 sequence: GLKRNRYLAFHFKSGSL

[2] = test system: T2, hBVR-derived substrate peptide GLKRNRYLSFHFK (hBVR aa222-234)
T2 sequence: GLKRNRYLSFHFKS

[3] = test system: T3, variant peptide GLKRNRYLAFHFK
T3 sequence: GLKRNRYLAFHFK

[4] = molecular target: active recombinant human PKC-δ kinase (as a GST fusion protein), Q05655
Chain of active recombinant human PKC-δ kinase (as a GST fusion protein), Q05655 (Q05655 whole entry, looked up, stated change not applied, the tested form may be a part): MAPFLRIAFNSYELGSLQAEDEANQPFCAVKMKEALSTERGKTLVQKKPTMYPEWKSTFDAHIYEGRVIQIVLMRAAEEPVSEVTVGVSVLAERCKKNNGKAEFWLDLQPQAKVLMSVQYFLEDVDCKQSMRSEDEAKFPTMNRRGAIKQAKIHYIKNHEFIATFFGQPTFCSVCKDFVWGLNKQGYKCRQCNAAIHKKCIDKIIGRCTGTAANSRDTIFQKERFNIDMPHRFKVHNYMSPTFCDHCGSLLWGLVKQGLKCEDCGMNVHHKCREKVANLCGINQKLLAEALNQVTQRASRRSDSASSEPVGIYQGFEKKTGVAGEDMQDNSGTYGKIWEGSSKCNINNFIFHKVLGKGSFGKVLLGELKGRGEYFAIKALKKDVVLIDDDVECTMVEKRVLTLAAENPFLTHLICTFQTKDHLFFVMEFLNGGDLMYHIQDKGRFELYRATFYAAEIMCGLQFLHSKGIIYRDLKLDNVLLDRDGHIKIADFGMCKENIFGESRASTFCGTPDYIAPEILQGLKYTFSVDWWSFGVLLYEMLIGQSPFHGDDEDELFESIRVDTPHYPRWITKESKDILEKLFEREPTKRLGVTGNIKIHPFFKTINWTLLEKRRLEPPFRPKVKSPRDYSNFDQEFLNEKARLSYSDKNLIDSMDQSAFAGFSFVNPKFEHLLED

For “active recombinant human PKC-δ kinase (as a GST fusion protein)”, the “phosphorylation of the peptide by PKC-δ (kinase assay, FIG. 4C)” value [1] was “As with the shorter peptide, the replacement of serine with alanine markedly decreased phosphorylation of the peptide”, the “Km (phosphorylation of the peptide, in vitro kinase assay, Michaelis-Menten fit)” value (“Km” for short) [2] was “Km of 1.59±0.58 µM” and the “phosphorylation of the peptide by PKC-δ (kinase assay, FIG. 4C)” value [3] was “A variant peptide in which the target serine was replaced by alanine was, as expected, not a substrate for the kinase”.

recombinant PKC-ζ was tested, and the “Km” value [2] was “Km 6.89 µM”.

recombinant PKC-βII was tested, and the “Km” value [2] was “Km 14.03 µM”.

B1: GST-hBVR fusion protein (protein)
chain: MNAEPERKFGVVVVGVGRAGSVRMRDLRNPHPSSAFLNLIGFVSRRELGSIDGVQQISLEDALSSQEVEVAYICSESSSHEDYIRQFLNAGKHVLVEYPMTLSLAAAQELWELAEQKGKVLHEEHVELLMEEFAFLKKEVVGKDLLKGSLLFTSDPLEEDRFGFPAFSGISRLTWLVSLFGELSLVSATLEERKEDQYMKMTVCLETEKKSPLSWIEEKGPGLKRNRYLSFHFKSGSLENVPNVGVNKNIFLKDQNIFVQKLLGQFSEKELAAEKKRILHCLGLAEEIQKYCCSRK
B1 was tested, and the “PKC-δ autophosphorylation, phosphorylation of hBVR and kinase activity toward MBP (in vitro kinase assay)” value [4] was “resulted in phosphorylation of hBVR concomitant with an enhanced PKC-δ autophosphorylation (FIG. 1A), and increased kinase activity toward the substrate, MBP (FIG. 1B)”.
